These results are taken from doi:10.1101/2023.07.17.549284.

For the assay, the target named is ndufs4^-/- complex I (N-module plus QP subcomplex) (mouse (endogenous in heart and kidney)) (UniProt Q91YT0). Nature of the assay: cryo-EM structure.

assembly factor NDUFAF2 (natural protein), sequence (Q59J78 whole entry): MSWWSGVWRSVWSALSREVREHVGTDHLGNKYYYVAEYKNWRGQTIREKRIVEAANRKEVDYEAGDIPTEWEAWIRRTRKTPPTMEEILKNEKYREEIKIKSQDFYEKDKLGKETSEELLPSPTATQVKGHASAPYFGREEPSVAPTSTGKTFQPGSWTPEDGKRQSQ

In the case of “assembly factor NDUFAF2 (natural protein)”, the percent of particles that contain NDUFAF2 stood at 14%.
